Results taken from patent publication US20260193348A1 (ANTENGENE BIOLOGICS, published 2026).

Legend:
GPRC5D on MM.1S cells [1] = target: T1, GPRC5D on MM.1S cells (human, UniProt Q9NZD1 1-345); experiment: FACS on MM.1S cells
T1 construct: whole, on cells; MM.1S is called a GPRC5D positive expressed cell line and human multiple myeloma cells; also called G-protein coupled receptor family C group 5 member D
Experimental: The binding affinities of the generated humanized Fab-scFv-Fab bispecific antibodies were determined by FACS analysis. […] (a) Jurkat cells were washed by Staining Buffer (PBS+1% BSA) in round bottom 96-well plate. [0833] (b) Antibody dilutions and cells were added to each well, incubated at 4 degrees for 1 hour. [0834] (c) Cells were spined down at 300 g for 3 minutes, and the supernatants were discarded. [0835] (d) Cells were washed with Staining Buffer. […] (e) Step (d) was repeated and the cells were incubated for 0.5 hours at 4 degrees with secondary antibody in Staining Buffer. [0837] (f) After incubation, step (d)-(e) were repeated. […] (g) Staining Buffer was added and fluorescence signals were recorded by flow cytometry.
The binding affinities of the generated humanized Fab-scFv-Fab bispecific antibodies were determined by FACS analysis. The ATG-Bis-40E9 was used as positive control and hIgG1 isotype was used as negative control. The protocol for FACS analysis is identical to that described in Example 3.2, except that MM.1S cells were used in this example.

GPRC5D on MM.1S cells [2] = target: T1, GPRC5D on MM.1S cells; experiment: cell-based or functional assay
GPRC5D on MM.1S cells [3] = target: T1, GPRC5D on MM.1S cells; experiment: cell-based or functional assay; remark: listed apart in the source
GPRC5D on MM.1S cells [4] = target: T1, GPRC5D on MM.1S cells; experiment: FACS on MM.1S cells; remark: listed apart in the source
Experimental: To evaluate the binding affinity of the generated chimeric bispecific antibody to T cells, the isolated CD3⁺ T cells were stained by antibodies and the binding affinity was determined by FACS analysis. The protocol of FACS analysis is described as follows: [0785] (a) CD3⁺ T cells were isolated from normal donors. [0786] (b) The isolated CD3⁺ T cells were washed by Staining Buffer (PBS+1% BSA) in round bottom 96-well plate. […] (c) Antibody dilutions were added to each well and mixed with the CD3+ T cells, incubated at 4 degrees for 1 hour. […] (d) Cells were spined at 300 g for 3 minutes, then the supernatants were discarded. [0789] (e) Cells were washed with Staining Buffer. [0790] (f) Step (d) was repeated, and the cells were incubated with secondary antibody in Staining Buffer for 0.5 hours at 4 degrees. [0791] (g) After incubation, step (d)-(e) were repeated. [0792] (h) Cells were resuspended in Staining Buffer and fluorescence signals were recorded by flow cytometry.
The binding affinities of the generated humanized Fab-scFv-Fab bispecific antibodies to MM.1S were evaluated by FACS analysis. The protocol for FACS analysis is identical to that described in Example 1.2, except that MM.1S were used in this example.

GPRC5D on MM.1S cells [5] = target: T1, GPRC5D on MM.1S cells; experiment: cell-based or functional assay; remark: listed apart in the source
GPRC5D on MM.1S cells [6] = target: T1, GPRC5D on MM.1S cells; experiment: cell-based or functional assay; remark: listed apart in the source

T1 sequence (Q9NZD1 whole entry): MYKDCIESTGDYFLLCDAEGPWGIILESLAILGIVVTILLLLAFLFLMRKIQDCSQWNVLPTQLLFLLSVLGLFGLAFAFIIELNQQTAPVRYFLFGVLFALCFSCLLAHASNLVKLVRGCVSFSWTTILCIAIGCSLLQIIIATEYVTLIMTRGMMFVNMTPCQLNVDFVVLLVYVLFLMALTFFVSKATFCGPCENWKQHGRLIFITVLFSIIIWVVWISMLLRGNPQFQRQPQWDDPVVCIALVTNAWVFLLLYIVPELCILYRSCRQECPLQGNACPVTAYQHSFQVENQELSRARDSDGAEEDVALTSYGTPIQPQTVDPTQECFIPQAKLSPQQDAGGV

Binder | EC50 (GPRC5D on MM.1S cells [1]) [nM] | Top signal (GPRC5D on MM.1S cells [1]) [MFI] | EC50, Jurkat-NFAT-Luciferase assay in the presence of MM.1S cells (GPRC5D on MM.1S cells [3]) [nM] | Top RLU, Jurkat-NFAT-Luciferase assay in the presence of MM.1S cells (GPRC5D on MM.1S cells [3]) [RLU] | Ratio of EC50 (relative to ATG-Bis-40E9) (GPRC5D on MM.1S cells [4]) [ratio] | Ratio of Top MFI (relative to ATG-Bis-40E9) (GPRC5D on MM.1S cells [4]) [ratio] | Ratio of Top RLU (relative to ATG-Bis-40E9), luciferase assay on MM.1S (GPRC5D on MM.1S cells [6]) [ratio] | IC50 of T-cell dependent cytotoxicity on MM.1S cells (GPRC5D on MM.1S cells [2]) [nM] | Top (%) target cell killing, MM.1S cells (GPRC5D on MM.1S cells [2]) [%] | Ratio of Top cytotoxicity (relative to ATG-Bis-40E9), MM.1S cytotoxicity (GPRC5D on MM.1S cells [5]) [ratio]
Bis-40E9-L2H6 (bispecific antibody, Fab-scFv-Fab format with LALA mutations) heavy 1: not shown heavy 2: EVQLVQSGAEVKKPGASVKVSCKASGYTFTSYVIHWVRQAPGQGLEWMGYFNPYNDGTKYNEEFKGRVTLTSDKSTSTAYMELRSLRSDDTAVYYCARGGVRRYFDVWGQGTTVTVSSASTKGPSVFPLAPSSKSTSGGTAALGCLVKDYFPEPVTVSWNSGALTSGVHTFPAVLQSSGLYSLSSVVTVPSSSLGTQTYICNVNHKPSNTKVDKKVEPKSCGGGGSGGGGSEVQLVQSGAEVKKPGSSVKVSCKASGYTFSSYVIHWVRQAPGQCLEWMGYINPYNDVIKYNEKFKGRVTLTSDKSTSTAYMELSSLRSEDTAVYYCARESFSSYDGFAYWGQGTLVTVSSGGGGSGGGGSGGGGSGGGGSEIVLTQSPDFQSVTPKEKVTITCSASSSVSYMHWYQQKPDQSPKRLIYDTSKLASGVPSRFSGSGSGTDFTLTINSLEAEDAATYYCQQWSSNPPTFGCGTKVEIKGGGGSGGGGSDKTHTCPPCPAPEAAGGPSVFLFPPKPKDTLMISRTPEVTCVVVDVSHEDPEVKFNWYVDGVEVHNAKTKPREEQYNSTYRVVSVLTVLHQDWLNGKEYKCKVSNKALPAPIEKTISKAKGQPREPQVCTLPPSREEMTKNQVSLSCAVKGFYPSDIAVEWESNGQPENNYKTTPPVLDSDGSFFLVSKLTVDKSRWQQGNVFSCSVMHEALHNHYTQKSLSLSPGK light: DIQMTQSPSSLSASVGDRVTITCRASQDIGSNLNWLQQKPGKAIKRLIYATFGLDSGVPSRFSGSRSGTDFTLTISSLQPEDFATYYCQQYASFPYTFGGGTKVEIKRTVAAPSVFIFPPSDEQLKSGTASVVCLLNNFYPREAKVQWKVDNALQSGNSQESVTEQDSKDSTYSLSSTLTLSKADYEKHKVYACEVTHQGLSSPVTKSFNRGEC |  |  |  |  | 0.824 | 0.877 | 0.04 |  |  | 0.06
Bis-108+147-S32R.L (bispecific antibody, Fab-scFv-Fab format) heavy 1: not shown heavy 2: EVQLVQSGAEVKKPGASVKVSCKASGYTFTSYVIHWVRQAPGQGLEWMGYFNPYNDGTKYNEEFKGRVTLTSDKSTSTAYMELRSLRSDDTAVYYCARGGVRRYFDVWGQGTTVTVSSASTKGPSVFPLAPSSKSTSGGTAALGCLVKDYFPEPVTVSWNSGALTSGVHTFPAVLQSSGLYSLSSVVTVPSSSLGTQTYICNVNHKPSNTKVDKKVEPKSCGGGGSGGGGSEVQLVQSGAEVKKPGSSVKVSCKASGYTFTSYWMHWVRQAPGQCLEWMGNINPSSGATNYNEKFKSRVTLTVDKSTSTAYMELSSLRSEDTAVYYCARDRSSQYYFDYWGQGTTVTVSSGGGGSGGGGSGGGGSGGGGSDIVMTQSPDSLAVSLGERATINCKSSQSLLNRRSRKNYLAWYQQKPGQPPKLLIYWASTRESGVPDRFSGSGSGTDFTLTISSLQAEDVAVYYCTQSYTLRTFGCGTKVEIKGGGGSGGGGSDKTHTCPPCPAPEAAGGPSVFLFPPKPKDTLMISRTPEVTCVVVDVSHEDPEVKFNWYVDGVEVHNAKTKPREEQYNSTYRVVSVLTVLHQDWLNGKEYKCKVSNKALPAPIEKTISKAKGQPREPQVCTLPPSREEMTKNQVSLSCAVKGFYPSDIAVEWESNGQPENNYKTTPPVLDSDGSFFLVSKLTVDKSRWQQGNVFSCSVMHEALHNHYTQKSLSLSPGK light: DIQMTQSPSSLSASVGDRVTITCRASQDIGSNLNWLQQKPGKAIKRLIYATFGLDSGVPSRFSGSRSGTDFTLTISSLQPEDFATYYCQQYASFPYTFGGGTKVEIKRTVAAPSVFIFPPSDEQLKSGTASVVCLLNNFYPREAKVQWKVDNALQSGNSQESVTEQDSKDSTYSLSSTLTLSKADYEKHKVYACEVTHQGLSSPVTKSFNRGEC | 1.76 | 2050 | 0.32 | 406 |  |  |  | 0.54 | 99 | 

Now from value to binder, other results behind:

EC50 (GPRC5D on MM.1S cells [1]) [nM] | Top signal (GPRC5D on MM.1S cells [1]) [MFI] | EC50, Jurkat-NFAT-Luciferase assay in the presence of MM.1S cells (GPRC5D on MM.1S cells [3]) [nM] | Top RLU, Jurkat-NFAT-Luciferase assay in the presence of MM.1S cells (GPRC5D on MM.1S cells [3]) [RLU] | Ratio of EC50 (relative to ATG-Bis-40E9) (GPRC5D on MM.1S cells [4]) [ratio] | Ratio of Top MFI (relative to ATG-Bis-40E9) (GPRC5D on MM.1S cells [4]) [ratio] | Ratio of Top RLU (relative to ATG-Bis-40E9), luciferase assay on MM.1S (GPRC5D on MM.1S cells [6]) [ratio] | Binder | IC50 of T-cell dependent cytotoxicity on MM.1S cells (GPRC5D on MM.1S cells [2]) [nM] | Top (%) target cell killing, MM.1S cells (GPRC5D on MM.1S cells [2]) [%] | Ratio of Top cytotoxicity (relative to ATG-Bis-40E9), MM.1S cytotoxicity (GPRC5D on MM.1S cells [5]) [ratio]
1.58 | 1740 | 0.47 | 408 |  |  |  | Bis-108+147-R35K.L (bispecific antibody, Fab-scFv-Fab format) heavy 1: not shown heavy 2: EVQLVQSGAEVKKPGASVKVSCKASGYTFTSYVIHWVRQAPGQGLEWMGYFNPYNDGTKYNEEFKGRVTLTSDKSTSTAYMELRSLRSDDTAVYYCARGGVRRYFDVWGQGTTVTVSSASTKGPSVFPLAPSSKSTSGGTAALGCLVKDYFPEPVTVSWNSGALTSGVHTFPAVLQSSGLYSLSSVVTVPSSSLGTQTYICNVNHKPSNTKVDKKVEPKSCGGGGSGGGGSEVQLVQSGAEVKKPGSSVKVSCKASGYTFTSYWMHWVRQAPGQCLEWMGNINPSSGATNYNEKFKSRVTLTVDKSTSTAYMELSSLRSEDTAVYYCARDRSSQYYFDYWGQGTTVTVSSGGGGSGGGGSGGGGSGGGGSDIVMTQSPDSLAVSLGERATINCKSSQSLLNSRSKKNYLAWYQQKPGQPPKLLIYWASTRESGVPDRFSGSGSGTDFTLTISSLQAEDVAVYYCTQSYTLRTFGCGTKVEIKGGGGSGGGGSDKTHTCPPCPAPEAAGGPSVFLFPPKPKDTLMISRTPEVTCVVVDVSHEDPEVKFNWYVDGVEVHNAKTKPREEQYNSTYRVVSVLTVLHQDWLNGKEYKCKVSNKALPAPIEKTISKAKGQPREPQVCTLPPSREEMTKNQVSLSCAVKGFYPSDIAVEWESNGQPENNYKTTPPVLDSDGSFFLVSKLTVDKSRWQQGNVFSCSVMHEALHNHYTQKSLSLSPGK light: DIQMTQSPSSLSASVGDRVTITCRASQDIGSNLNWLQQKPGKAIKRLIYATFGLDSGVPSRFSGSRSGTDFTLTISSLQPEDFATYYCQQYASFPYTFGGGTKVEIKRTVAAPSVFIFPPSDEQLKSGTASVVCLLNNFYPREAKVQWKVDNALQSGNSQESVTEQDSKDSTYSLSSTLTLSKADYEKHKVYACEVTHQGLSSPVTKSFNRGEC | 0.61 | 99.9 | 
1.5 | 2030 | 0.25 | 334 |  |  |  | Bis-108+147-S31R.H (bispecific antibody, Fab-scFv-Fab format) heavy 1: not shown heavy 2: EVQLVQSGAEVKKPGASVKVSCKASGYTFTSYVIHWVRQAPGQGLEWMGYFNPYNDGTKYNEEFKGRVTLTSDKSTSTAYMELRSLRSDDTAVYYCARGGVRRYFDVWGQGTTVTVSSASTKGPSVFPLAPSSKSTSGGTAALGCLVKDYFPEPVTVSWNSGALTSGVHTFPAVLQSSGLYSLSSVVTVPSSSLGTQTYICNVNHKPSNTKVDKKVEPKSCGGGGSGGGGSEVQLVQSGAEVKKPGSSVKVSCKASGYTFTRYWMHWVRQAPGQCLEWMGNINPSSGATNYNEKFKSRVTLTVDKSTSTAYMELSSLRSEDTAVYYCARDRSSQYYFDYWGQGTTVTVSSGGGGSGGGGSGGGGSGGGGSDIVMTQSPDSLAVSLGERATINCKSSQSLLNSRSRKNYLAWYQQKPGQPPKLLIYWASTRESGVPDRFSGSGSGTDFTLTISSLQAEDVAVYYCTQSYTLRTFGCGTKVEIKGGGGSGGGGSDKTHTCPPCPAPEAAGGPSVFLFPPKPKDTLMISRTPEVTCVVVDVSHEDPEVKFNWYVDGVEVHNAKTKPREEQYNSTYRVVSVLTVLHQDWLNGKEYKCKVSNKALPAPIEKTISKAKGQPREPQVCTLPPSREEMTKNQVSLSCAVKGFYPSDIAVEWESNGQPENNYKTTPPVLDSDGSFFLVSKLTVDKSRWQQGNVFSCSVMHEALHNHYTQKSLSLSPGK light: DIQMTQSPSSLSASVGDRVTITCRASQDIGSNLNWLQQKPGKAIKRLIYATFGLDSGVPSRFSGSRSGTDFTLTISSLQPEDFATYYCQQYASFPYTFGGGTKVEIKRTVAAPSVFIFPPSDEQLKSGTASVVCLLNNFYPREAKVQWKVDNALQSGNSQESVTEQDSKDSTYSLSSTLTLSKADYEKHKVYACEVTHQGLSSPVTKSFNRGEC | 4.43 | 159 | 
